This is an account of results in patent CN115197317A (ANYUAN PHARMACEUTICAL TECH SHANGHAI CO LTD, dated 2022).

In one assay the target is 刺突S-鼠Fc融合蛋白 (S-mFc) (SARS-CoV-2; mouse, UniProt P0DTC2 14-1213).
A further assay concerns the target SARS-CoV-2 S蛋白(His标签) (SARS-CoV-2, UniProt P0DTC2 16-1213). Kind of assay: competition ELISA, S protein (His tag) coated, HRP-hACE2-Fc as competitor. Background: In an ELISA, binding on a coated surface is turned into a signal by an enzyme label.
Assay [1] deals with T1, SARS-CoV-2 S蛋白 (ACRO Biosystems, coated in ELISA 7.1) (SARS-CoV-2, UniProt P0DTC2 16-1213).
T1 construct: also called SARS-CoV S蛋白(ACRO Biosystems)
As to the kind of experiment: indirect ELISA, S protein coated at 0.1 μg/mL.

B1: 鼠源抗体ST-35-4 (antibody, V domains shown)
VH: QVQLQQPGAELVRPGASMKLSCKTSGYTFTTYTIHWIKQTPGQGLEWIGAVNPGNGDTSYSQKFKGRAILTADKSSNTASMQFSSLTSEDSAVYYCARDGYPYFYALDSWGQGTSVTVSS
VL: DIQMTQSPSSLSASLGERVSLTCRAGQEISSYLTWLQQKPDGTIKRLIYAASTLDSGVPKRFSGSRSGSDYSLTINSLESEDFADYYCLQYASYPWTFGGGTKVEIK
A word on the IC50: it is the point on the concentration scale where inhibition reaches its midpoint. Low values mean higher potency, high ones lower potency. For the molecule B1, in the assay with 刺突S-鼠Fc融合蛋白 (S-mFc), half-maximal inhibition (IC50) was put at 0.0118 µg/mL.

B2: 鼠源抗体ST-10-4 (antibody, V domains shown)
VH: QVTLKESGPGILQPSQTLTLTCSFSGFSLDSSNMGVSWIRQTSGKGLEWLAHIYWGDDNRYNPSLKSRLTVSKDTSSNQVFLKLTNVDTADTATYYCARKWNWDWFPYWGQGTLVTVSA
VL: DIVLTQSPTSLPVSLGQRATISCRASKSVSASGYSFMHWYQQKPGQPPKLLISLASNLESGVPARFSGSGSGTDFTLNIHPVEEEDAATYYCQHSRELPLTFGAGTKLELK
As for B2, the IC50 with 刺突S-鼠Fc融合蛋白 (S-mFc) is 0.0165 µg/mL. The IC50 values of the last two molecules are within 1.5-fold of each other.

B3: 人源化抗体hST-35-4 (antibody, V domains shown)
VH: EVQLVQSGAEVKKPGSSVKVSCKTSGYTFTTYTIHWIRQAPGQGLEWIGAVNPGNADTSYSQKFKGRATLTADKSSNTAYMELSSLRSEDTAVYYCARDAYPYFYALDSWGQGTTVTVSS
VL: DIQMTQSPSSLSASVGDRVTITCRAGQEISSYLTWLQQKPEGTIKRLIYAASTLDSGVPKRFSGSRSGSDYTLTISSLQPEDFATYYCLQYASYPWTFGGGTKVEIKR
As a reminder, the EC50 is the concentration that produces a half-maximal response. A low value points to a more potent agent. On to B3, for which the half-maximal inhibitory concentration (IC50) came out at 0.0163 µg/mL in the assay with 刺突S-鼠Fc融合蛋白 (S-mFc) and 0.194 µg/mL with SARS-CoV-2 S蛋白(His标签). Moreover, it took 0.0018 µg/mL to reach a half-maximal effect in assay [1] (EC50).

B4: 人源化抗体hST-10-4 (antibody, V domains shown)
VH: EVTLKESGPALVKPTQTLTLTCTFSGFSLDSSNMGVSWIRQPPGKGLEWLAHIYWGDDNRYNPSLKSRLTVSKDTSKNQVVLTMTNMEPVDTATYYCARKWNWDWFPYWGQGTTVTVSS
VL: DIVLTQSPDSLAVSLGERATINCRASKSVSASGYSFMHWYQQKPGQPPKLLISLASNLESGVPARFSGSGSGTDFTLTISRLQAEDVAVYYCQHSRELPLTFGAGTKLEIKR
As to B4, the IC50 worked out at 0.0123 µg/mL with 刺突S-鼠Fc融合蛋白 (S-mFc) and 0.257 µg/mL with SARS-CoV-2 S蛋白(His标签). This molecule also had a half-maximal effective concentration (EC50) in assay [1] of 0.0023 µg/mL.
